Measurements: article PMC6141507, “A plant Bro1 domain protein BRAF regulates multivesicular body biogenesis and membrane protein homeostasis” (Nature Communications, 2018)

Target: T1, His-SUMO-FREE1 (Arabidopsis thaliana, UniProt Q9ASS2 1-601)
T1 construct: FREE1 (FYVE1), Arabidopsis thaliana, locus AT1G20110; also called Sumo-tagged FREE1; not shown: His, N-terminal, kept; SUMO, N-terminal, kept
T1 sequence (looked up): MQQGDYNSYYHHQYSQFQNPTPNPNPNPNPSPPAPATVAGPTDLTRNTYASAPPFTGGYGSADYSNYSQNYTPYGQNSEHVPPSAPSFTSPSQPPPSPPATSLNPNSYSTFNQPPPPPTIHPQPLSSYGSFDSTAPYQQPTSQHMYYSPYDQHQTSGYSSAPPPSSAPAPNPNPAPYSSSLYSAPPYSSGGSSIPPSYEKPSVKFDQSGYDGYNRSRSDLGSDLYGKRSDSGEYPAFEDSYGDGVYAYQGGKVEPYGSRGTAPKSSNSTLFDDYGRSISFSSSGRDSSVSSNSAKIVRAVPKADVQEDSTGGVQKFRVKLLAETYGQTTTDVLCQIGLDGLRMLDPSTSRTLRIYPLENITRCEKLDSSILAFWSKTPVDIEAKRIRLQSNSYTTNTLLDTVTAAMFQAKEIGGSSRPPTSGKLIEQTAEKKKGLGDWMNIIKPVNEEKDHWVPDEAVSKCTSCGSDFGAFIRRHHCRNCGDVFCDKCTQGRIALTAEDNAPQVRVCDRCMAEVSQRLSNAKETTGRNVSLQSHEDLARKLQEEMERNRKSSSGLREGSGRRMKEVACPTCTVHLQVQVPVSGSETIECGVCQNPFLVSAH
Assay: pull-down; competition: in vitro binding assay on amylose resin bound with MBP-Vps23A (or the Vps23A CC domain as bait) with a constant amount of one His-SUMO protein (30 pmol BRAF) and 10, 30, 100 or 300 pmol of the competing His-SUMO protein; immunoblot, quantified
Settings: both partners purified

B1: MBP-Vps23A (natural protein, Arabidopsis thaliana, UniProt Q9LHG8 1-398, looked up)
chain: MVPPPSNPQQVQQFLSSALSQRGPSSVPYEESNKWLIRQHLLNLISSYPSLEPKTASFMHNDGRSVNLLQADGTIPMPFHGVTYNIPVIIWLLESYPRHPPCVYVNPTADMIIKRPHAHVTPSGLVSLPYLQNWVYPSSNLVDLVSDLSAAFARDPPLYSRRRPQPPPPSPPTVYDSSLSRPPSADQSLPRPFPPSPYGGGVSRVQVQHVHHQQQSDDAAEVFKRNAINKMVEMVHSDLVSMRRAREAEAEELLSLQAGLKRREDELNIGLKEMVEEKETLEQQLQIISMNTDILDSWVRENQGKTKNLVDLDVDNAFECGDTLSKQMLECTALDLAIEDAIYSLDKSFQDGVVPFDQYLRNVRLLSREQFFHRATGSKVRAAQMEVQVAAIAGRLHS
notes: Vps23A/ELC, Arabidopsis thaliana, locus AT3G12400; Vector: in-house pRHisMBP; it may also add a His tag; source: E. coli BL21(DE3) pLysS, purified (amylose resin); not shown: MBP, N-terminal, kept
B1: binds.
